# Measured values as given in US7208293.
# B1: human neutrophil elastase (enzyme, UniProt P08246 30-247, looked up)
# chain: IVGGRRARPHAWPFMVSLQLRGGHFCGATLIAPNFVMSAAHCVANVNVRAVRVVLGAHNLSRREPTRQVFAVQRIFENGYDPVNLLNDIVILQLNGSATINANVQVAQLPAQGRRLGNGVQCLAMGWGLLGRNRGIASVLQELNVTVVTSLCRRSNVCTLVRGRQAGVCFGDSGSPLVCNGLIHGIASFVRGGCASGLYPDAFAPVAQFVNWIDSIIQ
# notes: also called HNE; HNE beads
# Experiments:
# BPTI(K15L)-III MA phage = biological target: T1, BPTI(K15L)-III MA phage (bovine; phage M13); experiment: pH elution from HNE beads
# T1 construct: Whole M13 phage (ampicillin resistance) displaying the variant on gene III protein; also called BPTI(K15L)-III phage
# Description: Samples were mixed on a Labquake shaker for 3 hours. The beads were washed with 0.5 ml of TBS/BSA for 5 minutes and recovered by centrifugation. The supernatant was removed and the beads were washed 5 times with 0.5 ml of TBS/0.1% Tween-20. Finally, the beads were resuspended in 0.5 ml of elution buffer (0.1 M HCl containing 1.0 mg/ml BSA adjusted to pH 2.2 with glycine), mixed for 5 minutes and recovered by centrifugation. The supernatant fraction was removed, neutralized with 130 µl of 1 M Tris, pH 8.0, diluted in LB broth, and titered for plaque-forming units on a lawn of cells.
# [1] = biological target: T2, BPTI(K15L,MGNG)-III MA phage (bovine; phage M13); experiment: phage eluted from HNE beads
# T2 construct: also called BPTI3.CL; BPTI-IIIMK (K15L MGNG)
# T2 sequence (chain, as listed by the source): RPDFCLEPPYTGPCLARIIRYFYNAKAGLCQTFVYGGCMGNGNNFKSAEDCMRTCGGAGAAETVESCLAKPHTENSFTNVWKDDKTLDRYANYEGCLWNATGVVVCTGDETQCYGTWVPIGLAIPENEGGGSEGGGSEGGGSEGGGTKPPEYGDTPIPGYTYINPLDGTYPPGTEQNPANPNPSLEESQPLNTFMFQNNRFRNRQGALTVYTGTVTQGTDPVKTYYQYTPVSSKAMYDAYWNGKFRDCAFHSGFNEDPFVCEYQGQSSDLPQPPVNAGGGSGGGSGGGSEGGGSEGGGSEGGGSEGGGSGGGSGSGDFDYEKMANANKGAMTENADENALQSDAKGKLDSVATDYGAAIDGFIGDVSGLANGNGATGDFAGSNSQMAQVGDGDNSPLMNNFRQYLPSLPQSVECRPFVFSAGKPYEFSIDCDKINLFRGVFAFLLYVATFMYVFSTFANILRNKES
binder,measurement,setting,value
B1,binding result,BPTI(K15L)-III MA phage,binds
same,binding result,[1],binds
